{
  "source": "patent US20090111742A1",
  "about": "“Use of fgf-21 and thiazolidinedione for treating type 2 diabetes” (priority 2004, published 2009)",
  "molecules": {"B1": {"name": "FGF-21: mature human 181 amino acid FGF-21 polypeptide (SEQ ID NO:1), recombinantly expressed (protein)", "chain": "HPIPDSSPLLQFGGQVRQRYLYTDDAQQTEAHLEIREDGTVGGAADQSPESLLQLKALKPGVIQILGVKTSRFLCQRPDGALYGSLHFDPEACSFRELLLEDGYNVYQSEAHGLPLHLPGNKSPHRDPAPRGPARFLPLPGLPPALPEPPGILAPQPPDVGSSDPLSMVGPSQGRSPSYAS", "modifications": "homo sapiens"}},
  "key": {"[1]": {"tested_on": "male db/db mice", "assay": "Db/db mouse model, plasma triglycerides", "type": "in vivo", "source_text": "(§1) The genetically diabetic C57BL/KsJ (db/db) mouse provides an animal model of type 2 diabetes, characterized by obesity, hyperglycemia and insulin resistance with hyperinsulinemia. (Sharma et al., Am J Physiol Renal Physiol. 284(6):F1138-b 44, (2003)).\n(§2) In the present study, male db/db mice, 9 weeks of age are used. The animals are randomized by body weight and blood glucose levels into groups of six mice per group. Group 1: vehicle 1: CMC/SLS/Povidone, p.o. […] The animals are dose for 14 days.\nPlasma triglycerides are measured on days 7 and 14, 1 hour post dosing."}, "[2]": {"tested_on": "male db/db mice", "assay": "Db/db mouse model, blood glucose levels", "type": "in vivo", "settings": "1 hour post dose", "source_text": "as §1, §2\nBlood glucose is measured daily, 1 hour post dosing."}, "[3]": {"tested_on": "male ob/ob mice", "assay": "Ob/ob mouse model, blood glucose levels", "type": "in vivo", "settings": "1 hour post dose", "experimental": "The Ob/ob mouse model is an animal model for hyperglycemia, insulin resistance and obesity. Male ob/ob mice are used to monitor plasma glucose levels and triglyceride levels after treatment with FGF-21, rosiglitazone, and FGF-21 in combination with rosiglitazone. The test groups of male ob/ob, mice (7 weeks old) are: FGF-21, 5 μg/day; rosiglitazone, 30 mg/kg/day; FGF-21, 3 ug/day, +rosiglitazone, 10 mg/kg/day; FGF-21, 5 ug/day, +rosiglitazone, 30 mg/kg/day; FGF-21, 5 ug/day, +rosiglitazone 10 mg/kg/day; s.c. vehicle control (0.9% NaCl, 0.1 ml/mouse); and, p.o. vehicle control (CMC/SLS/Povidone, 0.2 ml/mouse). FGF-21 is administered s.c. in 0.1 ml, and rosiglitazone is administered p.o. in 0.2 ml.\nThe animals are dosed daily for 14 days. Blood glucose levels are measured daily, 1 hour post dosing, using a standard protocol."}, "[4]": {"tested_on": "differentiated 3T3-L1 cells", "assay": "Glucose uptake in mouse 3T3-L1 adipocytes (2-deoxy-D-[14C]glucose accumulation)", "type": "cell-based", "settings": "72 hr. treatment", "experimental": "3T3-Li cells are obtained from the American Type Culture Collection (ATCC, Rockville, Md.). Cells are cultured in growth medium (GM) containing 10% calf serum in Dulbecco's modified Eagle's medium. For standard adipocyte differentiation, two days after cells reach confluency (referred as day 0), the cells are exposed to differentiation medium (DM) containing 10% fetal bovine serum, 5 μg/ml of insulin, 1 μM dexamethasone, and […] isobutylmethylxanthine, for 48 h and then are exposed to medium containing 10% fetal bovine serum, 5 μg/ml insulin for an additional 48 h. Cells are then maintained in post differentiation medium containing 10% fetal bovine serum.\nGlucose Transport Assay—FGF-21 is added to the differentiated 3T3-L1 cells in 96 well plates at 0, 0.016, 0.08, 0.4, 2, 10, or 50.0 nM, and rosiglitazone is added to a final concentration of 1 μM, Table 1. For comparison, rosiglitazone alone is added at the concentrations indicated in Table 2 or in combination with FGF-21 at 1 μg/ml. The plates are incubated at 37° C. for 72 hours.\nHexose uptake, as assayed by the accumulation of 2-deoxy-D-[^14C]glucose, is measured as follows: 24 hours prior to the assay, the wells are rinsed twice with PBS and DMEM (high glucose, 1% antibiotic/antimycotic solution, 2 mM glutamine), 0.1% BSA plus FGF-21 is added. The plates are incubated at 37° C. for 72 hours. The cells are then washed twice with KRP buffer (136 mM NaCl, 4.7 mM KCl, 10 mM NaPO4, 0.9 mM CaCl2, 0.9 MM MgSO4, 0.1% BSA, pH 7.4), and then KRP buffer containing 1% BSA, 2-deoxy-D-glucose, 100 μM, 0.1 μCi/well 2-deoxy-D-[^14C]glucose is added and the plates are incubated at 37° C. for one hour. Cytochalasin B is added to stop further glucose uptake. Uptake is measured on a Microbeta plate reader."}},
  "data": [
    {"molecule": "CN(CCOc1ccc(CC2SC(=O)NC2=O)cc1)c1ccccn1", "note": "(stereo not drawn) [Rosi., rosiglitazone, reference compound]", "values": [
      {"measurement": "Plasma Triglycerides", "setting": "[1]; Rosi. 10 mg/kg/day, Day 7, 1 hour post dose", "value": 135, "unit": "mg/dL"},
      {"measurement": "Plasma Triglycerides", "setting": "[1]; Rosi. 10 mg/kg/day, Day 14, 1 hour post dose", "value": 85, "unit": "mg/dL"},
      {"measurement": "Blood Glucose Levels in db/db mice", "setting": "[2]; Rosi. 10 mg/kg/day p.o., day 0", "value": 265, "unit": "mg/dL"},
      {"measurement": "Blood Glucose Levels in db/db mice", "setting": "[2]; Rosi. 10 mg/kg/day p.o., day 2", "value": 370, "unit": "mg/dL"},
      {"measurement": "Blood Glucose Levels in db/db mice", "setting": "[2]; Rosi. 10 mg/kg/day p.o., day 4", "value": 350, "unit": "mg/dL"},
      {"measurement": "Blood Glucose Levels in db/db mice", "setting": "[2]; Rosi. 10 mg/kg/day p.o., day 6", "value": 340, "unit": "mg/dL"},
      {"measurement": "Blood Glucose Levels in db/db mice", "setting": "[2]; Rosi. 10 mg/kg/day p.o., day 8", "value": 265, "unit": "mg/dL"},
      {"measurement": "Blood Glucose Levels in db/db mice", "setting": "[2]; Rosi. 10 mg/kg/day p.o., day 10", "value": 315, "unit": "mg/dL"},
      {"measurement": "Blood Glucose Levels in db/db mice", "setting": "[2]; Rosi. 10 mg/kg/day p.o., day 12", "value": 360, "unit": "mg/dL"},
      {"measurement": "Blood Glucose Levels in db/db mice", "setting": "[2]; Rosi. 10 mg/kg/day p.o., day 14", "value": 350, "unit": "mg/dL"},
      {"measurement": "Blood Glucose Levels in ob/ob mice", "setting": "[3]; Rosi. 30 mg/kg/day p.o., day 0", "value": 225, "unit": "mg/dL"},
      {"measurement": "Blood Glucose Levels in ob/ob mice", "setting": "[3]; Rosi. 30 mg/kg/day p.o., day 2", "value": 125, "unit": "mg/dL"},
      {"measurement": "Blood Glucose Levels in ob/ob mice", "setting": "[3]; Rosi. 30 mg/kg/day p.o., day 4", "value": 150, "unit": "mg/dL"},
      {"measurement": "Blood Glucose Levels in ob/ob mice", "setting": "[3]; Rosi. 30 mg/kg/day p.o., day 6", "value": 135, "unit": "mg/dL"},
      {"measurement": "Blood Glucose Levels in ob/ob mice", "setting": "[3]; Rosi. 30 mg/kg/day p.o., day 8", "value": 115, "unit": "mg/dL"},
      {"measurement": "Blood Glucose Levels in ob/ob mice", "setting": "[3]; Rosi. 30 mg/kg/day p.o., day 10", "value": 125, "unit": "mg/dL"},
      {"measurement": "Blood Glucose Levels in ob/ob mice", "setting": "[3]; Rosi. 30 mg/kg/day p.o., day 12", "value": 120, "unit": "mg/dL"},
      {"measurement": "Blood Glucose Levels in ob/ob mice", "setting": "[3]; Rosi. 30 mg/kg/day p.o., day 14", "value": 115, "unit": "mg/dL"}
    ]},
    {"molecule": "B1", "values": [
      {"measurement": "Plasma Triglycerides", "setting": "[1]; FGF-21 3 ug/day, Day 7, 1 hour post dose", "value": 165, "unit": "mg/dL"},
      {"measurement": "Plasma Triglycerides", "setting": "[1]; FGF-21 3 ug/day, Day 14, 1 hour post dose", "value": 120, "unit": "mg/dL"},
      {"measurement": "Blood Glucose Levels in db/db mice", "setting": "[2]; FGF-21 3 μg/day s.c., day 0", "value": 265, "unit": "mg/dL"},
      {"measurement": "Blood Glucose Levels in db/db mice", "setting": "[2]; FGF-21 3 μg/day s.c., day 2", "value": 270, "unit": "mg/dL"},
      {"measurement": "Blood Glucose Levels in db/db mice", "setting": "[2]; FGF-21 3 μg/day s.c., day 4", "value": 280, "unit": "mg/dL"},
      {"measurement": "Blood Glucose Levels in db/db mice", "setting": "[2]; FGF-21 3 μg/day s.c., day 6", "value": 300, "unit": "mg/dL"},
      {"measurement": "Blood Glucose Levels in db/db mice", "setting": "[2]; FGF-21 3 μg/day s.c., day 8", "value": 290, "unit": "mg/dL"},
      {"measurement": "Blood Glucose Levels in db/db mice", "setting": "[2]; FGF-21 3 μg/day s.c., day 10", "value": 325, "unit": "mg/dL"},
      {"measurement": "Blood Glucose Levels in db/db mice", "setting": "[2]; FGF-21 3 μg/day s.c., day 12", "value": 345, "unit": "mg/dL"},
      {"measurement": "Blood Glucose Levels in db/db mice", "setting": "[2]; FGF-21 3 μg/day s.c., day 14", "value": 345, "unit": "mg/dL"},
      {"measurement": "Blood Glucose Levels in ob/ob mice", "setting": "[3]; FGF-21 5 μg/day s.c., day 0", "value": 225, "unit": "mg/dL"},
      {"measurement": "Blood Glucose Levels in ob/ob mice", "setting": "[3]; FGF-21 5 μg/day s.c., day 2", "value": 175, "unit": "mg/dL"},
      {"measurement": "Blood Glucose Levels in ob/ob mice", "setting": "[3]; FGF-21 5 μg/day s.c., day 4", "value": 150, "unit": "mg/dL"},
      {"measurement": "Blood Glucose Levels in ob/ob mice", "setting": "[3]; FGF-21 5 μg/day s.c., day 6", "value": 140, "unit": "mg/dL"},
      {"measurement": "Blood Glucose Levels in ob/ob mice", "setting": "[3]; FGF-21 5 μg/day s.c., day 8", "value": 140, "unit": "mg/dL"},
      {"measurement": "Blood Glucose Levels in ob/ob mice", "setting": "[3]; FGF-21 5 μg/day s.c., day 10", "value": 160, "unit": "mg/dL"},
      {"measurement": "Blood Glucose Levels in ob/ob mice", "setting": "[3]; FGF-21 5 μg/day s.c., day 12", "value": 180, "unit": "mg/dL"},
      {"measurement": "Blood Glucose Levels in ob/ob mice", "setting": "[3]; FGF-21 5 μg/day s.c., day 14", "value": 225, "unit": "mg/dL"},
      {"measurement": "14C-Deoxyglucose (CPM)", "setting": "[4]; FGF-21 alone 0.4 nM", "value": 1300, "unit": "CPM"},
      {"measurement": "14C-Deoxyglucose (CPM)", "setting": "[4]; FGF-21 alone 2.0 nM", "value": 2500, "unit": "CPM"},
      {"measurement": "14C-Deoxyglucose (CPM)", "setting": "[4]; FGF-21 alone 10.0 nM", "value": 3100, "unit": "CPM"},
      {"measurement": "14C-Deoxyglucose (CPM)", "setting": "[4]; FGF-21 alone 50.0 nM", "value": 3500, "unit": "CPM"},
      {"measurement": "14C-Deoxyglucose (CPM)", "setting": "[4]; FGF-21 alone .016 nM", "value": 900, "unit": "CPM"},
      {"measurement": "14C-Deoxyglucose (CPM)", "setting": "[4]; FGF-21 alone .08 nM", "value": 1000, "unit": "CPM"}
    ]}
  ]
}
